The assay has as its target Mcm2-7 hexamer (budding yeast (endogenous in yeast extract) | budding yeast) (UniProt P29469). The experiment in a line: negative-stain electron microscopy.

This note sets out measurements from publication PMC2804858.

By stoichiometry N is commonly meant the number of molecules, sites or subunits per partner or assembly. Substance “Mcm2-7 hexamer, P29469 1-868; P24279 1-971; P30665 1-933; P29496 1-775; P53091 1-1017; P38132 1-845” came in with a stoichiometry N of 2 hexamers.
